Source: publication PMC11662928, “L1-ORF1p nucleoprotein can rapidly assume distinct conformations and simultaneously bind more than one nucleic acid”

Experiments:
ORF1p WT (111p) [1] = molecular target: ORF1p WT (111p) (UniProt Q9UN81); experiment: optical tweezers; conditions: 30 pN; K* = compact and de-compact states equally occupied, not a simple Kd; Binding buffer with 50 mM Na+ (pH and other components not in the material), 21 C (stated for m128p); 8.1 knt ssDNA held at 5-50 pN
[2] = molecular target: m128p (CTD, RRM, 3.5 of 14 CC heptads) (UniProt Q9UN81); experiment: optical tweezers (koff/kon); conditions: Binding buffer with 50 mM Na+ (pH and other components not in the material), 21 C (stated for m128p); 8.1 knt ssDNA held at 5-50 pN
ORF1p WT (111p) [3] = molecular target: ORF1p WT (111p) (UniProt Q9UN81); experiment: optical tweezers (koff/kon); conditions: 30 pN tension, 1 nM ORF1p; Binding buffer with 50 mM Na+ (pH and other components not in the material), 21 C (stated for m128p); 8.1 knt ssDNA held at 5-50 pN
ORF1p WT (111p) [4] = molecular target: ORF1p WT (111p) (UniProt Q9UN81 1-338); experiment: confocal fluorescence with optical tweezers; 30 nM ORF1p bound to tethered 8.1 knt ssDNA (ternary complex), 10 and 30 pN; Binding buffer with 50 mM Na+ (pH and other components not in the material), 21 C (stated for m128p); 8.1 knt ssDNA held at 5-50 pN; conditions: protein: recombinant; tags: N-terminal His; chain copies: 3; label: 5' Alexa488; single strand
Chain of ORF1p WT (111p) (UniProt Q9UN81 1-338) (Q9UN81 whole entry): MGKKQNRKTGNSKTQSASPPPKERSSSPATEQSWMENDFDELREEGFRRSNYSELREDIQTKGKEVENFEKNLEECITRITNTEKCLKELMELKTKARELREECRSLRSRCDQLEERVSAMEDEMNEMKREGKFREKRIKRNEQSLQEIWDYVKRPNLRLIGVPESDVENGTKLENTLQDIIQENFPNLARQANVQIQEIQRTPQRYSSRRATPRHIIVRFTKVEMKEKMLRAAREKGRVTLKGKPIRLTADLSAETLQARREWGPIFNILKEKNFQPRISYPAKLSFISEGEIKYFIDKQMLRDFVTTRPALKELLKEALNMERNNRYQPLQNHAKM

Chain of ORF1p WT (111p) (UniProt Q9UN81) (Q9UN81 whole entry): as above
Chain of m128p (CTD, RRM, 3.5 of 14 CC heptads) (Q9UN81 128-338): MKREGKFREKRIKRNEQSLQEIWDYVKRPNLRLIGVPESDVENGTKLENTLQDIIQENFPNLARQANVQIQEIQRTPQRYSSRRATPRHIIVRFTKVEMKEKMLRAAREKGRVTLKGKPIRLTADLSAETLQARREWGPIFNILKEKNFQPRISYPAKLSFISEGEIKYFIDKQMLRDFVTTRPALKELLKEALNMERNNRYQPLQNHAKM

Molecule 8.1 knt ssDNA has a K half (ORF1p WT (111p) [1]) of 2.8 nM, a Kd [2] of 1.6 nM and a Kd (ORF1p WT (111p) [3]) of 0.17 nM.

TTTTTTTTTTTTTTTTTTTT (ssDNA) [Alexa488-dT20]: binds (ORF1p WT (111p) [4]).
